Experimental data taken from US7485618B2, “FGF-5 supported and binding peptides” (Genencor International, Inc., priority 2003, dated 2009).

biological target: T1, FGF-5 (Homo sapiens, UniProt P12034); test: BLA binding assay on FGF-5 coated plates, nitrocefin readout; settings: purified peptide-BLA fusions at 0.1 nM, bound to FGF-5
T1 construct: host or cells: FGF-5 added exogenously to NR6R-3T3 murine fibroblasts
T1 sequence (P12034 21-268): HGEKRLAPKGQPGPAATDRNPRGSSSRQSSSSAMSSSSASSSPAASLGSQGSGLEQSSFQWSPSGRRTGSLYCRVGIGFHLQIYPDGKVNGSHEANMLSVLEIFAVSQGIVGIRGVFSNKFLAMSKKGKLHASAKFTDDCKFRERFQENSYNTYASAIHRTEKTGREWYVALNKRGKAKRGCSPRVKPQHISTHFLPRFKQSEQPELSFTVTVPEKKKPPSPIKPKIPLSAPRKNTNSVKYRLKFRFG
Description: This Example describes secondary screening methods used to analyze FGF-5 binding npeptides. Individual clones were picked and grown up in 5 ml LB+5 ppm CMP overnight at 37° C. The cell pastes were then treated with 125μ of B-PER reagent (Pierce) for 30 min with slow mixing. COSTAR plates (96-well) were coated with 0.1 μg (100 μl of 1 μg/ml) FGF-5, carrier-free (R&D Systems #237-F5/CF, Lot #GQ18304A) with gentle rocking at 4° C. overnight, followed by blocking with Superblock blocking buffer (Pierce) for several hours at room temperature. Then, 100 μl B-Per treated supernatant from individual clones from pGV02-L were added to the FGF-5 coated plates. After one hour, plates were washed six times with PBS, 0.05% TWEEN®-20 and 200 μl of nitrocefin assay buffer containing 0.1 mg/ml nitrocefin (Oxoid) was added to measure residual bound beta-lactamase activity, using Abs490/min. Control wells contained pCB04 (See, FIG. 1C) beta-lactamase as a control. […] These clones were sequenced, and the results are provided in Table 1, where the first column is the name of the peptide, the second column is the nucleotide sequence and the third column is the amino acid sequence of the peptide:
Cell pastes were harvested from the 200 ml cell cultures described in Example 6, by centrifugation at 3,000×g for 10 min. The pastes were then treated with 25 ml of B-PER reagent (Pierce) for 40 min with slow mixing. The extract was separated by centrifugation at 20,000 g for 20 min. BLA activity of all liquid fractions was assayed using nitrocefin, and the concentration of fusion proteins in each fraction was calculated assuming the same specific activity as the WT enzyme. Fusion proteins were purified by IMAC chromatography (See, FIG. 4). The imidazole-eluted BLA-active fractions were pooled and the purity was found better than 95% as checked by SDS-PAGE. (See, FIG. 5).
The binding (BLA assay) was repeated using different peptide concentrations to see a dose response. To verify specific binding, the assay was also done using an irrelevant target. The results are shown in FIG. 6 and in Table 2, below.

Row | Percent Bound at 0.1 nM | Sequence
1 | 8% | CEEIWTMLC (synthesized FGF-5 binding peptide) [1A6, tested as BLA and BBI/BCE fusions]
2 | 5% | CHYLLTNYC (synthesized FGF-5 binding peptide) [2H9, tested as BLA fusion]
3 | 7% | CLTVLWTTC (synthesized FGF-5 binding peptide) [2E2, tested as BLA and BBI/BCE fusions]
4 | 8% | CRIHLAHKC (synthesized FGF-5 binding peptide) [2H10, tested as BLA fusion]
